B1: humanized antibody 1E9.2-hz15 (antibody, human IgG1, kappa, V domains shown)
VH: EVQLVESGGGLVKPGGSLRLSCAASGFSFSNSAMSWVRQAPGKGLEWVSTISSGDSYTYYADSVKGRFTISRDNAKNSLYLQMNSLRAEDTAVYYCARQGYGNALDYWGQGTLVTVSS
VL: DIVMTQTPLSLPVTPGEPASISCKSSQSLLNSGNQKNYLTWYLQKPGQSPQLLIYWSSTRESGVPDRFSGSGSGTDFTLKISRVEAEDFGVYYCQNDYYYPLTFGGGTKVEIKR
B2: humanized antibody 1E9.2-hz17 (antibody, human IgG1, kappa, V domains shown)
VH: EVQLVESGGGLVKPGGSLRLSCAASGFSFSNSAMSWVRQAPGKGLEWVSTISSGDSYTYYADSVKGRFTISRDNAKNSLYLQMNSLRAEDTAVYYCARQGYGNALDYWGQGTLVTVSS
VL: DIVMTQTPLSLPVTPGEPASISCKSSQSLLQSGNGKNYLTWYLQKPGQSPQLLIYWSSTRESGVPDRFSGSGSGTDFTLKISRVEAEDFGVYYCQNDYYYPLTFGGGTKVEIKR

Columns and labels:
[1] = molecular target: human Claudin18.2 (human) (UniProt P56856); assay: cell-based or functional assay
[2] = molecular target: human Claudin18.2 (human) (UniProt P56856); assay: flow cytometry (IntelliCyt) on Ba/F3-Claudin 18.2 cells

Row | Binder | ADCC EC50 [1] [µg/mL] | ADCC Max killing rate % [1] [%] | Max MFI [2] [MFI]
1 | B1 | 0.08 | 66.2 | 8.99e+06
2 | B2 | 0.113 | 59.6 | 5.9e+06
